No end group written: not given here.

In general, Kd refers to the constant that tells how readily two partners part at equilibrium.

T1: IcsA passenger domain, IcsA(53–758), FLAG-tagged (Shigella flexneri, UniProt Q7BCK4 53-758)
T1 construct: IcsA (VirG) of Shigella flexneri, gene amplified from the virulence plasmid pWR100; Expressed as full-length IcsA from pETDuet-2 with IcsP; monomer by SEC-MALS; also called FLAG-IcsA; VirG; source: E. coli C43 (DE3), full-length IcsA co-expressed with IcsP; secreted passenger domain purified from medium (anti-FLAG M2 beads, SEC); not shown: FLAG, N-terminal, kept
T1 sequence: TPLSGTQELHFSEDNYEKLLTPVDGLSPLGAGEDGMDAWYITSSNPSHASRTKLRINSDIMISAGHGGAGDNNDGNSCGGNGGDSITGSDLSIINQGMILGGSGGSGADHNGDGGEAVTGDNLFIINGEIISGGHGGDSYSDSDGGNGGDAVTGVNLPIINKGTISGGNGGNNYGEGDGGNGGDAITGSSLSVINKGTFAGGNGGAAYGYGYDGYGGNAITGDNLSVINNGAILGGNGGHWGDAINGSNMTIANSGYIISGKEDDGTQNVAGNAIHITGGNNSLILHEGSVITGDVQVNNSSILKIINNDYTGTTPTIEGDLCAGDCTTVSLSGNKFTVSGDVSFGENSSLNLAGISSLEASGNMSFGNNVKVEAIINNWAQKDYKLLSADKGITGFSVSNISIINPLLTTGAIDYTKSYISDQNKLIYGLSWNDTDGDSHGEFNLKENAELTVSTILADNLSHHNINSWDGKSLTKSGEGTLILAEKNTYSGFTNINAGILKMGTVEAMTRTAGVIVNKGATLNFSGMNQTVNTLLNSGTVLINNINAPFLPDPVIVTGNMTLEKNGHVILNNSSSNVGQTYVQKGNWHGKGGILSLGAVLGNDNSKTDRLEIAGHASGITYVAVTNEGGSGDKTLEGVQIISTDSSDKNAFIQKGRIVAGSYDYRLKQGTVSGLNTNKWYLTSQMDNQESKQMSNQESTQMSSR

B1: GST-N-WASP WH1 + GBD (residues 30–274) (domain or fragment)
chain: LFTFLGKKCVTMSSAVVQLYAADRNCMWSKKCSGVACLVKDNPQRSYFLRIFDIKDGKLLWEQELYNNFVYNSPRGYFHTFAGDTCQVALNFANEEEAKKFRKAVTDLLGRRQRKSEKRRDPPNGPNLPMATVDIKNPEITTNRFYGPQVNNISHTKEKKKGKAKKKRLTKADIGTPSNFQHIGHVGWDPNTGFDLNNLDPELKNLFDMCGISEAQLKDRETSKVIYDFIEKTGGVEAVKNELRR
notes: N-WASP from the WH1 domain to the end of the GBD, residues 30-274; also called GST-WH1 + GBD; extended N-WASP construct; source: E. coli Rosetta(DE3), purified (glutathione-Sepharose, SEC)
B2: Fluorescein-labelled N-WASP VCA peptide (residues 462–481) (peptide)
peptide: fluorescein-APTSGIVGALMEVMQKRSKA
notes: also called labeled peptide; source: synthetic peptide (Genscript)
B3: GST-N-WASP extended GBD (residues 156–274) (domain or fragment)
chain: NLPMATVDIKNPEITTNRFYGPQVNNISHTKEKKKGKAKKKRLTKADIGTPSNFQHIGHVGWDPNTGFDLNNLDPELKNLFDMCGISEAQLKDRETSKVIYDFIEKTGGVEAVKNELRR
notes: Cloned in pGEX-6P-1 or pGEX-4T-2; also called GST-GBD; GBD alone; source: E. coli Rosetta(DE3), purified (glutathione-Sepharose, SEC)

Holding throughout (conditions): both partners purified
The target of assay [1] is T1, IcsA passenger domain, IcsA(53–758), …. Description: fluorescence polarisation; competition: preformed complex of GST-GBD or GST-WH1 + GBD (5 μM) and fluorescein-VCA peptide (0.1 nM), IcsA added at 0.01–16 μM, 25 °C; one-site equilibrium model.
The target of assay [2] is B3. Kind of assay: fluorescence polarisation; direct binding: fluorescein-VCA peptide 2 nM, GST-GBD or GST-WH1 + GBD 0.1–200 μM, 25 °C, TBS, 1 mM DTT; one-site equilibrium model.
In assay [3] the target is B1. The assay is described as above.

As for B1, in assay [1], the Kd turned out to be 0.05 µM.

With B2, the figures for the Kd in assay [2] and in assay [3] were 28.8 µM and 52.4 µM, respectively.

Take B3: the Kd in assay [1] was 0.32 µM.

For the origin of these results see paper PMC5217673, “The Shigella Virulence Factor IcsA Relieves N-WASP Autoinhibition by Displacing the Verprolin Homology/Cofilin/Acidic (VCA) Domain*” (The Journal of Biological Chemistry, 2016).
